Experimental data as given in patent US20040014026A1 (YISSUM RESEARCH DEVELOPMENT COMPANY OF THE HEBREW …, published 2004).
Each block holds one molecule with its values, some of them ahead of it.

B4: WDK2 (Flag-WD with Lys 326 mutated to Ala) (other, UniProt Q9Y297 229-605, looked up, not shown: small tags and cut ends)
chain: IERMVRTDSLWRGLAERRGWGQYLFKNKPPDGNAPPNSFYRALYPKIIQDIETIESNWRCGRHSLQRIHCRSETSKGVYCLQYDDQKIVSGLRDNTIAIWDKNTLECKRILTGHTGSVLCLQYDERVIITGSSDSTVRVWDVNTGEMLNTLIHHCEAVLHLRFNNGMMVTCSKDRSIAVWDMASPTDITLRRVLVGHRAAVNVVDFDDKYIVSASGDRTIKVWNTSTCEFVRTLNGHKRGIACLQYRDRLVVSGSSDNTIRLWDIECGACLRVLEGHEELVRCIRFDNKRIVSGAYDGKIKVWDLVAALDPRAPAGTLCLRTLVEHSGRVFRLQFDEFQIVSSSHDDTILIWDFLNDPAAQAEPPRSPSRTYTYISR
notes: domain: WD fragment (F-Box deleted E3RS); also called Flag-WD mutant WDK2; mutant WD

What was measured:
[1] = target: IKK-phosphorylated IκBα (pIκBα) (UniProt P25963); assay: pIκBα binding after heat shock, data not shown
[2] = target: T1, hnRNP-U (endogenous protein of 293/293T cells) (UniProt Q00839-2 2-806, limits assumed); assay: anti-Flag immunoprecipitation from 293T cells, Western blot with monoclonal anti-hnRNP-U (also Coomassie, FIG. 2A lane 3)
T1 construct: also called p120; 120 kD protein
Procedure: Cells were harvested 24-48 h after transfection, and extracted by suspension in 50 mM Tris pH 7.6, 1 mM dithiothreitol (DTT), 0.1% Nonidet P-40 (NP-40), 1 mM phenyl methyl sulfonyl fluoride, 1% Aprotinin and vortexing for 20 sec. Cell extracts were collected following centrifugation at 20,000 g for 30 min at 4° C. Cell extract (500 μg protein) was adjusted to 150 mM NaCl prior to immunoprecipitation. Flag-tagged proteins were immunoprecipitated with 2 μl of the anti-Flag immunobeads. Immunoprecipitation was for 2 h at 4° C. and the immunobeads were washed 4× in 300 mM NaCl, 1 mM DTT, 0.1% NP-40 and 50 mM Tris, pH 7.6. Flag-tagged proteins were eluted from the Flag immunobeads with 1 mg/ml of Flag peptide in 50 mM Tris, pH 7.6 for 30 min at 25° C. hnRNP-U was immunoprecipitated using 0.2-0.5 μl of the 3G6 antibody and 2-5%1 of Protein G immunobeads.
(§1) The cells were lysed and the extracts immunoprecipitated, using agarose-conjugated anti-Flag (lanes 1-5) and anti-HA (lane 6) antibodies. Immunoprecipitated proteins were analyzed by SDS-PAGE and Coomassie Brilliant Blue staining.

[3] = target: B4; assay: pull-down of 35S-labelled pIκBα on anti-Flag immunobeads, phosphorimaging
Source text: The beads were washed extensively and associated proteins analyzed by SDS-PAGE and phosphorimaging.

HA-hnRNP-U = target: T2, HA-hnRNP-U (UniProt Q00839-2 1-806, limits assumed); assay: anti-p65 immunoprecipitation from 293T cells with MEKK and IKK2, anti-HA Western blot
T2 construct: not shown: HA tag

[4] = target: T1, hnRNP-U (endogenous protein of 293/293T …); assay: pIκBα incubated with anti-hnRNP-U immunobeads carrying the hnRNP-U/E3RS complex, Western blot
Procedure: (§2) IκBα (FIG. 4D, lanes 1,3,4) and IKK phosphorylated IκBα (pIκBα; FIG. 4D, lanes 2,5-7) were incubated with the immunobeads, after which, both the immunobeads (slurry (S); FIG. 4D, lanes 1-3,5) and the post-slurry fractions (PS; FIG. 4D, lanes 4,6) were analyzed by Western blot directly, or after immunoprecipitation of the post-slurry fraction (same as in FIG. 4D, lane 6) with anti-Flag beads (FIG. 4D, lane 7).

[5] = target: T1, hnRNP-U (endogenous protein of 293/293T …); assay: IκBα incubated with anti-hnRNP-U immunobeads carrying the hnRNP-U/E3RS complex, Western blot
Procedure: as §2

[6] = target: T1, hnRNP-U (endogenous protein of 293/293T …); assay: anti-Flag immunopurification, Flag-peptide elution, Coomassie
Procedure: To detect specifically dissociated proteins, immunobeads were incubated with Flag peptide (FIG. 3B, lanes 1,4,7), pp10 (FIG. 3B, lanes 2,5,8), p10S/E (FIG. 3B, lanes 3,6,9) and the post-slurry fractions were separated by SDS-PAGE.

[7] = target: T1, hnRNP-U (endogenous protein of 293/293T …); assay: anti-Flag immunoprecipitation from 293T cells, Coomassie and Western blot
Procedure: as §1

[8] = target: T1, hnRNP-U (endogenous protein of 293/293T …); assay: anti-Flag immunopurification from 293T cells, SDS-PAGE Coomassie
Procedure: as §1

loss of pIκBα binding capacity after heat shock [1]: 50 to 60%
Molecule: E3K2 (Flag-E3RS with the K2 residue Lys 326 mutated to Ala) (from UniProt Q9Y297 1-605)

binding result [2]: no binding
B1: Flag-HOS/β-TrCP2 (other, human, UniProt Q9UKB1 1-542, looked up, not shown: small tags and cut ends)
chain: MEPDSVIEDKTIELMCSVPRSLWLGCANLVESMCALSCLQSMPSVRCLQISNGTSSVIVSRKRPSEGNYQKEKDLCIKYFDQWSESDQVEFVEHLISRMCHYQHGHINSYLKPMLQRDFITALPEQGLDHIAENILSYLDARSLCAAELVCKEWQRVISEGMLWKKLIERMVRTDPLWKGLSERRGWDQYLFKNRPTDGPPNSFYRSLYPKIIQDIETIESNWRCGRHNLQRIQCRSENSKGVYCLQYDDEKIISGLRDNSIKIWDKTSLECLKVLTGHTGSVLCLQYDERVIVTGSSDSTVRVWDVNTGEVLNTLIHHNEAVLHLRFSNGLMVTCSKDRSIAVWDMASATDITLRRVLVGHRAAVNVVDFDDKYIVSASGDRTIKVWSTSTCEFVRTLNGHKRGIACLQYRDRLVVSGSSDNTIRLWDIECGACLRVLEGHEELVRCIRFDNKRIVSGAYDGKIKVWDLQAALDPRAPASTLCLRTLVEHSGRVFRLQFDEFQIISSSHDDTILIWDFLNVPPSAQNETRSPSRTYTYISR
notes: also called β-TrCP2/HOS

binding result [3]: no binding | binding result (HA-hnRNP-U): no binding | binding result [4]: no binding
B2: IKK-phosphorylated IκBα (pIκBα) (other, UniProt P25963 1-317, looked up)
chain: MFQAAERPQEWAMEGPRDGLKKERLLDDRHDSGLDSMKDEEYEQMVKELQEIRLEPQEVPRGSEPWKQQLTEDGDSFLHLAIIHEEKALTMEVIRQVKGDLAFLNFQNNLQQTPLHLAVITNQPEIAEALLGAGCDPELRDFRGNTPLHLACEQGCLASVGVLTQSCTTPHLHSILKATNYNGHTCLHLASIHGYLGIVELLVSLGADVNAQEPCNGRTALHLAVDLQNPDLVSLLLKCGADVNRVTYQGYSPYQLTWGRPSTRIQQQLGQLTLENLQMLPESEDEESYDTESEFTEFTEDELPYDDCVFGGQRLTL
modifications: phosphorylated by IKK2 (sites not given); 35S-labelled in the in vitro assays
notes: in the other assays it was phosphorylated in vitro by IKK2

binding result [5]: no binding
B3: non-phosphorylated IκBα (other, UniProt P25963 1-317, looked up)
chain: MFQAAERPQEWAMEGPRDGLKKERLLDDRHDSGLDSMKDEEYEQMVKELQEIRLEPQEVPRGSEPWKQQLTEDGDSFLHLAIIHEEKALTMEVIRQVKGDLAFLNFQNNLQQTPLHLAVITNQPEIAEALLGAGCDPELRDFRGNTPLHLACEQGCLASVGVLTQSCTTPHLHSILKATNYNGHTCLHLASIHGYLGIVELLVSLGADVNAQEPCNGRTALHLAVDLQNPDLVSLLLKCGADVNRVTYQGYSPYQLTWGRPSTRIQQQLGQLTLENLQMLPESEDEESYDTESEFTEFTEDELPYDDCVFGGQRLTL

Molecule: B4
binding result [6]: no binding

binding result [7]: no binding
B5: Flag-F-Box (F-Box fragment of E3RS) (other, UniProt Q9Y297 1-228, looked up, not shown: small tags and cut ends)
chain: MDPAEAVLQEKALKFMCSMPRSLWLGCSSLADSMPSLRCLYNPGTGALTAFQNSSEREDCNNGEPPRKIIPEKNSLRQTYNSCARLCLNQETVCLASTAMKTENCVAKTKLANGTSSMIVPKQRKLSASYEKEKELCVKYFEQWSESDQVEFVEHLISQMCHYQHGHINSYLKPMLQRDFITALPARGLDHIAENILSYLDAKSLCAAELVCKEWYRVTSDGMLWKKL
notes: domain: F-Box fragment

Coomassie staining ratio p120/E3RS [8]: 1.5 ratio p120:E3RS
B6: Flag-tagged E3RS/βTrCP (Flag-E3RS) (other, UniProt Q9Y297 1-605, looked up, not shown: small tags and cut ends)
chain: MDPAEAVLQEKALKFMCSMPRSLWLGCSSLADSMPSLRCLYNPGTGALTAFQNSSEREDCNNGEPPRKIIPEKNSLRQTYNSCARLCLNQETVCLASTAMKTENCVAKTKLANGTSSMIVPKQRKLSASYEKEKELCVKYFEQWSESDQVEFVEHLISQMCHYQHGHINSYLKPMLQRDFITALPARGLDHIAENILSYLDAKSLCAAELVCKEWYRVTSDGMLWKKLIERMVRTDSLWRGLAERRGWGQYLFKNKPPDGNAPPNSFYRALYPKIIQDIETIESNWRCGRHSLQRIHCRSETSKGVYCLQYDDQKIVSGLRDNTIKIWDKNTLECKRILTGHTGSVLCLQYDERVIITGSSDSTVRVWDVNTGEMLNTLIHHCEAVLHLRFNNGMMVTCSKDRSIAVWDMASPTDITLRRVLVGHRAAVNVVDFDDKYIVSASGDRTIKVWNTSTCEFVRTLNGHKRGIACLQYRDRLVVSGSSDNTIRLWDIECGACLRVLEGHEELVRCIRFDNKRIVSGAYDGKIKVWDLVAALDPRAPAGTLCLRTLVEHSGRVFRLQFDEFQIVSSSHDDTILIWDFLNDPAAQAEPPRSPSRTYTYISR
notes: F-box protein, receptor subunit of the IκB-E3; Immunopurified material may carry endogenous Skp1/Cul1; also called β-TrCP/E3RS; WT E3RS
